Assay results as given in IntAct's records for PubMed 19726565.

B1: Inositol phosphorylceramide synthase regulatory subunit KEI1 (Saccharomyces cerevisiae), Q06346 (parent)
chain: MRSSLLTLPKSFLGFMPLYLAVEIVLGISILNKCSGAYGILALFTGHPLDFMQWIAYLWSVFTLIVFSQGLYLIHKPNLLVFSQICVLYTIDTISTCFFTLWFTTQWFTLEDTANIDGNNALQSNPISTGKLTERGIDISKQSATESYEYTMTILITLVSLIFRFYFNFILASFVQELLHHPKYLVDRDDVEQNLKNKPIWKRLWAKSQKGCYKLCKNLLE
partner: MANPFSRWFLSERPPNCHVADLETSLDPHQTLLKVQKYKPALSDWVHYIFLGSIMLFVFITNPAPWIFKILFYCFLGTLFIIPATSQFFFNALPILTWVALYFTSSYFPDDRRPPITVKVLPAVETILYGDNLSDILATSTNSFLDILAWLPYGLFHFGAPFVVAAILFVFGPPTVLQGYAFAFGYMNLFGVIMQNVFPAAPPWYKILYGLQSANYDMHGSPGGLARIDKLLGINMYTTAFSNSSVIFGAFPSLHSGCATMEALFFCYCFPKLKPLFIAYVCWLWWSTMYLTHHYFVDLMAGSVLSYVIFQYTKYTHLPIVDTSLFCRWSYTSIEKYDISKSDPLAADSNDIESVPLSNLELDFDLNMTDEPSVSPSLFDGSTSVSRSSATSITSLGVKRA

Variants of: B1
Conditions: with aur1_yeast AUR1, P36107

| effect of a mutation on the interaction | Variant |
| --- | --- |
| disrupting interaction strength | F103I |
